Data on 1 molecule can be found in patent publication US20170137513A1.

In this assay the target is T1, monkey CD22 (Rhesus monkey) (UniProt H9G1X2).
T1 sequence: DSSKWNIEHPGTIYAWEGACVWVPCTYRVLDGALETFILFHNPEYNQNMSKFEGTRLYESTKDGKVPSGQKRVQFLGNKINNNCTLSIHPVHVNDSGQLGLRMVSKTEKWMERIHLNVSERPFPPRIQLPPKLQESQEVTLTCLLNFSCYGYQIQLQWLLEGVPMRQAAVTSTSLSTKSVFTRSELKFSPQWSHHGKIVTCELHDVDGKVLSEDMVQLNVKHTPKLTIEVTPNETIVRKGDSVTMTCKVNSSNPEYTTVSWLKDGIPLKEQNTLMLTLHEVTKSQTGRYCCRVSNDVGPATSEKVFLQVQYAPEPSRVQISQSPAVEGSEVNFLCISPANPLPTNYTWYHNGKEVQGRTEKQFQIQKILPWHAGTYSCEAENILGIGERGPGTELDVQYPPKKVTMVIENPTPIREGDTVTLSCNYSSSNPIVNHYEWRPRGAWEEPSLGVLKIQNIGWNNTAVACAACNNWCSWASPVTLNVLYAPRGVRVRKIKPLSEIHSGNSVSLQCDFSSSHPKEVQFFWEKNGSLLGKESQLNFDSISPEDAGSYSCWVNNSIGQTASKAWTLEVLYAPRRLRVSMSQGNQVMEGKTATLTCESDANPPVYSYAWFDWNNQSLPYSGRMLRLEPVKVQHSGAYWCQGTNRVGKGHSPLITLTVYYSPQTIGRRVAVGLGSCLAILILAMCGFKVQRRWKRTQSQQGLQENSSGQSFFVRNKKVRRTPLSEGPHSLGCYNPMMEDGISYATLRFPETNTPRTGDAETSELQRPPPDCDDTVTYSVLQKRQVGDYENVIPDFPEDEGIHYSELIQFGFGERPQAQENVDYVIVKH
Nature of the assay: flow cytometry, direct immunofluorescence on Rhesus monkey PBMC. On the technique in general: A flow cytometer gives signals particle by particle.

B1: RFB4 monoclonal antibody (antibody, V domains shown)
VH: EVQLVESGGGLVKPGGSLKLSCAASGFAFSIYDMSWVRQTPEKRLEWVAYISSGGGTTYYPDTVKGRFTISRDNAKNTLYLQMSSLKSEDTAMYYCARHSGYGSSYGVLFAYWGQGTLVTVSA
VL: DIQMTQTTSSLSASLGDRVTISCRASQDISNYLNWYQQKPDGTVKLLIYYTSILHSGVPSRFSGSGSGTDYSLTISNLEQEDFATYFCQQGNTLPWTFGGGTKLEIK
Take B1: the percent positive cells is 31.3%.
